Data reported in US20090074766A1, “Methods of inhibiting HIV-2 infection” (priority 2007, published 2009).
Values joined by “and” are separate entries in the source; they are usually repeats but may differ in a detail not shown here. Equal values may be shown once. Read-outs that look alike come from different tables or passages of the source.

Assays:
R5 HIV-2 A2270 = assay: Inhibition of replication in PBMC cultures, RT activity readout: HIV-2 A2270; type: cell-based
Description: (§1) Viruses: All virus isolates were grown and titered exclusively in stimulated PBMC as described previously. […] The HIV-2 isolates used in this study have been previously described (Owen, S. M., Ellenberger, D., Rayfield, M., Wiktor, S., Michel, P., Grieco, M. H., Gao, F., Hahn, B. H., and Lai, R. B. 1998. Genetically Divergent Strains of Human Immunodeficiency Virus Type 2 Use Multiple Coreceptors for Entry. J Virol 72:5425-5432) and were obtained from the NIH AIDS Research and Reference Reagent Program.
(§2) PA14 (Lot # DF-021204) was produced for reagent use in the Research & Development laboratories of Progenics Pharmaceuticals Inc.
Inhibition of HIV-1 and HIV-2 replication in PBMC cultures: PBMC were isolated from 34 healthy blood donors with Ficoll-Hypaque (all media from Cellgro, Herndon, Va.) and depleted of CD8+ cells using RosetteSep CD8 depletion cocktail (StemCell Technologies) according to the manufacturer's instructions. Equal numbers of cells from each donor were then separately stimulated with 5 ug phytohemagglutinin/ml (Sigma, St. Louis, Mo.) or with surface-immobilized anti-CD3 antibody OKT3 in RPMI 1640 medium containing 10% fetal calf serum, 100 Units of interleukin-2/ml (NIH AIDS Research and Reference Reagent Program), glutamine, and antibiotics (PBMC culture medium) as previously described. After 72 hours, equal numbers of PBMC stimulated by one of these two methods from each donor were combined for use in infection assays as follows. […] The virus inoculum was adjusted to 400 to 2,000 times the TCID50 per ml in PBMC culture medium, and a 50-ul aliquot was added to each culture. The inhibitory doses refer to the concentrations of the agents present at this point in the culture, when virus, cells, and inhibitors were all present at their final concentrations. Reverse Transcriptase (RT) activity was measured on Day 7 post infection (pi) for HIV-1 and Day 10 pi for HIV-2 by the Reverse Transcriptase Assay, Colorimetric kit, #11 468 120 910, Roche (Switzerland) according to the manufacturer's instructions with the following exception: neither ultracentrifugation nor PEG precipitation of the culture supernatants was performed before viral lysis.
The inhibition data were analyzed using GraphPad Prism software (GraphPad Software, San Diego, Calif.). A 4-parameter logistic fit was used calculate the concentration of inhibitor that afforded a 50% and a 90% reduction in RT activity. […] The % inhibitions where best-fit curve reached a top plateau, also as calculated by GraphPad Prism software, are reported as well as maximum percent inhibition (MPI). […] Inhibition curves with a poor sigmoid fit (R^2<0.7) were excluded from data analysis.

CCR5 = molecular target: T1, CCR5 (Homo sapiens, UniProt P51681); assay: Competition binding: inhibition of 3H-UK-427,857 binding to CEM.NKR-CCR5 cells; details: read-out: EC50 for inhibition of 3H-UK-427,857 binding; 2 nM 3H-UK-427,857, pre-incubation with unlabeled compound
T1 construct: host or cells: CEM.NKR-CCR5 (transduced human T cell leukemia line)
Source text: Cells were washed and then analyzed for radioactivity by scintillation counting.
The cells were washed in PBSA and lysed with 0.5N HCl prior to scintillation counting using a Wallac1410 instrument.

R5X4 HIV-2 310342 = assay: Inhibition of replication in PBMC cultures, RT activity readout: HIV-2 310342; type: cell-based
Description: as §1, §2
Inhibition of HIV-1 and HIV-2 replication in PBMC cultures: PBMC were isolated from 34 healthy blood donors with Ficoll-Hypaque (all media from Cellgro, Herndon, Va.) and depleted of CD8+ cells using RosetteSep CD8 depletion cocktail (StemCell Technologies) according to the manufacturer's instructions. […] Reverse Transcriptase (RT) activity was measured on Day 7 post infection (pi) for HIV-1 and Day 10 pi for HIV-2 by the Reverse Transcriptase Assay, Colorimetric kit, #11 468 120 910, Roche (Switzerland) according to the manufacturer's instructions with the following exception: neither ultracentrifugation nor PEG precipitation of the culture supernatants was performed before viral lysis. […]

[1] = system: HIV-1 (CCR5-tropic virus); type: in vivo; details: for Mean log10 HIV RNA change: Day 10 post-treatment
Source text: The efficacy data collected during the study were changes in viral load and CD4 counts over time. The safety data collected during the study were serious adverse events (SAEs)/adverse events (AEs) and changes in laboratory parameters (hematology, chemistry), physical exam, viral tropism and ECGs over time.
(§3) All patients were screened prior to the study for the presence of virus that utilizes only CCR5 as the entry coreceptor., i.e., CCR5-tropic virus.
The primary efficacy endpoint was the reduction in plasma HIV RNA level as measured by the Roche Amplicor™ Assay. The primary efficacy endpoint is the maximum change from baseline in viral load, defined as HIV-1 copies/ml, as measured by the Roche Amplicor™ Assay.

[2] = Phase 1b clinical trial: safety, immunogenicity, RANTES, coreceptor tropism (Trofile); type: in vivo, human
Source text: as §3
Where no CXCR4-using clones are identified in a pre-dose sample from a subject, the on-treatment CXCR4-using virus can be identified as being phylogenetically very distant from the CCR5 tropic baseline virus; in such a case, the emergence of a pre-dose or pre-treatment CXCR4-using virus, i.e., one that is present at baseline, but is not detected, may likely explain the D/M tropism in the subject, as opposed to a tropism switch.

T1 sequence (P51681 whole entry): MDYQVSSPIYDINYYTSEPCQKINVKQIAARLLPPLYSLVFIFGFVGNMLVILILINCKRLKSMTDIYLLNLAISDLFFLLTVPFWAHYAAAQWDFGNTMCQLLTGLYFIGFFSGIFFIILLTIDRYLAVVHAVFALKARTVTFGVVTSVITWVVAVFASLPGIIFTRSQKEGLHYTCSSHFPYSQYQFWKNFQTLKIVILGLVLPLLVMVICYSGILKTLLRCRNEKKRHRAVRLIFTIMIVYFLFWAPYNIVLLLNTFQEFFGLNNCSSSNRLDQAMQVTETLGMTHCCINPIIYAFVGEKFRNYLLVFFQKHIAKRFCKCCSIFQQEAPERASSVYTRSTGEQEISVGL

B1: PRO 140: humanized IgG4,κ anti-CCR5 monoclonal antibody, humanized version of murine mAb PA14 (antibody, chains of the INN, looked up, V domains shown)
VH: EVQLVESGGGLVKPGGSLRLSCAASGYTFSNYWIGWVRQAPGKGLEWIGDIYPGGNYIRNNEKFKDKTTLSADTSKNTAYLQMNSLKTEDTAVYYCGSSFGSNYVFAWFTYWGQGTLVTVSS
VL: DIVMTQSPLSLPVTPGEPASISCRSSQRLLSSYGHTYLHWYLQKPGQSPQLLIYEVSNRFSGVPDRFSGSGSGTDFTLKISRVEAEDVGVYYCSQSTHVPLTFGQGTKVEIK
EC50 (median) (R5 HIV-2 A2270; HIV-2 A2270, R5): 0.12 µg/mL | EC90 (median) (R5 HIV-2 A2270; HIV-2 A2270, R5): 3.5 µg/mL | MPI (maximum percent inhibition) (R5 HIV-2 A2270; R5 HIV-2 A2270, individual assays (Source)): 103% and 101% and 97% | MPI, Median (R5 HIV-2 A2270; R5 HIV-2 A2270, median of assays): 101% | EC50 (CCR5): 14 nM | EC50 (median) (R5X4 HIV-2 310342): >100 µg/mL | EC90 (median) (R5X4 HIV-2 310342): >100 µg/mL | individual viral load reductions ranging up to ([1]; 2.0 mg/kg and 5.0 mg/kg dose levels): up to 2.5 log10 and ≤ 99.7% | Maximum decrease of viral load at any time ([1]; 5 mg/kg): −1.8 log | Patients with <400 copies/mL (anytime) ([1]; 5 mg/kg): 4/10 | Patients with >1 log decrease (anytime) ([1]; 5 mg/kg): 10/10 | viral load decrease at day 22 ([1]; 5 mg/kg): −0.73 | time to suppression of mean viral load by 1.0 log10 (90%) ([1]; 5.0 mg/kg cohort): within four days | time viral load persisted at or below the 1.0 log10 level of reduction ([1]; 5.0 mg/kg cohort): two to three weeks | Mean log10 HIV RNA change ([1]; 0.5 mg/kg): −0.37 log10 | Mean log10 HIV RNA change ([1]; 2.0 mg/kg): −1.04 log10 | Mean log10 HIV RNA change ([1]; 5.0 mg/kg): −1.70 log10 | response rate (percentage of patients with a ≧1 log10 decrease in HIV RNA at any time) ([1]; highest dose cohort): 100% | subjects with dual/mixed tropism result post-treatment ([2]; PRO 140 subjects (0.5 mg/kg group, day 8 only)): 1/30 | dose-limiting toxicity ([2]; Phase 1b): No dose-limiting toxicity or obvious pattern of toxicity | plasma RANTES (CCL5) chemokine levels ([2]; Phase 1b): No change in plasma RANTES (CCL5) chemokine levels | treatment related SAEs ([2]; Phase 1b): No treatment related SAEs | tolerability ([2]; all study groups (0.5, 2.0, 5.0 mg/kg)): well-tolerated
